# Measured values reported in paper PMC7755911 (Scientific Reports, 2020).
# B1: NIH-CoVnb-112 (VHH)
# VHH: DVQLQESGGGLVQPGGSLRLSCAASGLTLDYYAIGWFRQAPGKEREGVSCISSSDGSTYYADSVKGRFTTSRDNAKNTVYLQMNSLKPEDTAVYYCAAVPSTYYSGTYYYTCHPGGMDYWGKGTQVTVSS
# notes: also called lead nanobody candidate; anti-SARS-CoV-2 RBD nanobody; source: E. coli BL21 (DE3), periplasm by osmotic shock, purified (HisTrap, Superdex 75)
# Target: SARS-CoV-2 Receptor Binding Domain (RBD) (SARS-CoV-2, UniProt P0DTC2)
# Assay: ELISA
# Conditions: both partners purified
binder,measurement,value
B1,EC50,1.11 nM
